Test results from the nanobody polyreactivity screen of Harvey et al. (2022).

Assay: yeast display, Sf9 membrane polyspecificity reagent, FACS + sequencing; frameworks hold sequencing errors
Outline: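 In a synthetic yeast display library (Saccharomyces cerevisiae BJ5465), nanobody expression was induced with galactose for 36–48 hours. FACS gates were set low and high (top ~1%) using anti-HA fluorescence for expression and streptavidin fluorescence for binding of the Sf9 membrane reagent. Each polyreactivity label is drawn from the gate of origin.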

QVQLVESGGGLVQAGGSLRLSCAASGYTFRYYAMGWYRQAHGKERELVAAITSSTSSTYYADSVKGRFTISRDNAKNTVYLQMNSLKPEDTAVYYCNRVWSTSMDYWGEGTQVTVSS
polyreactivity (PSR sort gate): high polyreactivity

QVQLVESGGGLVQAGGSLRLSCAASGYTFRYYAMGWYRQAHGKERELVDDINSGDITNYADSVKGRFTISRDNAKYTVYLQMNSLKTEDTAVYYCARRTFSLYDYWGQGTQVTVSS
polyreactivity (PSR sort gate): low polyreactivity

QVQLVESGGGLVQAGGSLRLSCAASGYTFRYYAMGWYRQAPGKDRELVAVISSGGSTKYADSVKGRFTNSRDNAKNTVYLQMNSLKPEDTAVYYCAARYRSLYNYWGQGTQVTVSS
polyreactivity (PSR sort gate): high polyreactivity

QVQLVESGGGLVQAGGSLRLSCAASGYTFRYYAMGWYRQAPGKERELVAAITWSGGSTYYADSVKGRFTISRDNAKNTVYLQMNSLKPEDTAVYYCATDSARVGNFPDPQFDYWGQGTQVTVSS
polyreactivity (PSR sort gate): low polyreactivity

QVQLVESGGGLVQAGGSLRLSCAASGYTFSDNAMGWYRQAPGKERELVAAITSGVSTYYADSVKGRFTISRDNAKNTVYLQMNSLKPEDTAVYYCAKDVAVYADLYQGAPYGYWGQGTQVTVSS
polyreactivity (PSR sort gate): low polyreactivity

QVQLVESGGGLVQAGGSLRLSCAASGYTFSFYAMGWYIQAPGKERELVATISWRGGSTYYADSVKGRFTISRDNAKNTVYLQMNSLKPEDTAVYYCNIVDKTGSKMDYWGQGTQVTVSS
polyreactivity (PSR sort gate): high polyreactivity

QVQLVESGGGLVQAGGSLRLSCAASGYTFSLNAMGWYRQAPGKERELVAAIRGGGSTNYADSVKGRFTISRDNAKKTVYLQMNSLKPEDTAVYYCAASSYNGHVYWGQGTQVTVSS
polyreactivity (PSR sort gate): low polyreactivity

QVQLVESGGGLVQAGGSLRLSCAASGYTFSRNAMGWYRPAPGKERELVAAITGSGGSTYYADSVKGRFTISRDNAKNTVYLQMNSLKPEDTAVYYCASKYYGRSFYYGYDYWGQGTQVTVSS
polyreactivity (PSR sort gate): low polyreactivity

QVQLVESGGGLVQAGGSLRLSCAASGYTFSRNAMGWYRQAPGKERELVADINYSGGITYYADSVKGRFTISRDNAKNTVYLQMNSLKPEDTAVYYCAAVATNVPTHGRPSRRAYDYWGQGTQVTVSS
polyreactivity (PSR sort gate): low polyreactivity

QVQLVESGGGLVQAGGSLRLSCAASGYTFSRYAMGWYRQAPGKERELVAAISHSAGRTYYADSVKGRFTISRDNAKNTVYLQMNSLKPEDTAVYYCATAYKPDTRDDYWGQGTQVTVSS
polyreactivity (PSR sort gate): high polyreactivity

QVQLVESGGGLVQAGGSLRLSCAASGYTFSRYAMGWYRQAPGKERELVAAITSRGGRTYYADSVKVRFTISRDNAKNTVFLQMNSLKPEDNAVYYCAADVIFWRTGYDYWGPGTQVTVSS
polyreactivity (PSR sort gate): high polyreactivity

QVQLVESGGGLVQAGGSLRLSCAASGYTFTHYAMGWYRQAPGKERELVASISQSGGSTYYPDSVKGSFTISRDNAQYTVYGQMNSLKPEDTAVYYCAVDYYYDQSLYEYCGQGTQVTVSS
polyreactivity (PSR sort gate): high polyreactivity

QVQLVESGGGLVQAGGSLRLSCAASGYTFTSNAMGWYRQAPGKERELVAAISRSGVSTSYADSVKGRFTISRDNAKNTVYLQMNSLKPEDSAVYYCNRYYWDPTHPRYDSWGQGTQVTVSS
polyreactivity (PSR sort gate): high polyreactivity

QVQLVESGGGLVQAGGSLRLSCAASGYTFTSNAMGWYRQAPGKERELVADISTGVDSTYYADSVKGRFTISRDNAKNTVYLQMNSLKPEDTAVYYCNADILVAWYDEPFDYWGQGTQVTVSS
polyreactivity (PSR sort gate): low polyreactivity

QVQLVESGGGLVQAGGSLRLSCAASGYTFVWYAMGWYRQAPGKERELVAAISASGGSTYYADSVKGRFTISRDNAKNTVYLQMNSLKPEDTAVYYCNAVGALSVYGGNGYWGQGTQVTVSS
polyreactivity (PSR sort gate): high polyreactivity

QVQLVESGGGLVQAGGSLRLSCAASGYTFWQYAMGWYRQAPGKERELVATITSRGGSTYYADSVKGRFTISRDNAKNTVYLQMNSLKPEDSAVYYCNARRRYSTRRSDYWGQGTQVTVSS
polyreactivity (PSR sort gate): high polyreactivity

QVQLVESGGGLVQAGGSLRLSCAASGYTFYANAMGWYRQAPGKEREFVASITWSGGSTYYADSVKGRFTISRDNAKNTVYLQMNSLKPEDTAVYYCNTDLTYPYPNVEVLVYGFKLDYWGQGTQVTVSS
polyreactivity (PSR sort gate): low polyreactivity

QVQLVESGGGLVQAGGSLRLSCAASGYTFYANAMGWYRQAPGKEREFVASNTWSGGSTYYADSVKGRFTISRDTAKITVYLQMNSLKPEDTAVYYWAAESWFNYDYWGQGTQVTVSS
polyreactivity (PSR sort gate): low polyreactivity

QVQLVESGGGLVQAGGSLRLSCAASGYTFYIYAMGWSRQAPGKERELVATISSSGGGTYYADSVKGRFTISRDNAKNTVYFQMYSQKPEDTAVYDCNAAGWYWQAEGYDYWGQGTQVTVSS
polyreactivity (PSR sort gate): low polyreactivity

QVQLVESGGGLVQAGGSLRLSCAASGYTFYKYAMGWYRQAPGKEREFVADITQSGGSTYYADSVKGRFTISRDNAKNTVYLQMNSLKPEDTAVYYCNAAYSYRPDPKGYDYWGQGTQVTVSS
polyreactivity (PSR sort gate): low polyreactivity

QVQLVESGGGLVQAGGSLRLSCAASGYTFYRYAMGWYRQAPGKERELVARISRSGGSTFYADSVKGRFTISRDNAKNTVYLQMNSLKPEDTAVYYCNAKQYSPYYLVIYHYWGQGTQVTVSS
polyreactivity (PSR sort gate): high polyreactivity

QVQLVESGGGLVQAGGSLRLSCAASGYTFYRYTMGWYRQAPGKERELVAAINSGGSTNYADSLKGRFTISRDNAKYTVYLQMNSLKPEDTAVYYCARRYQTWPRWYDYWGQGTQVTVSS
polyreactivity (PSR sort gate): high polyreactivity

QVQLVESGGGLVQAGGSLRLSCAASGYTIDGYAMGWYRQAPGKERELVAGISSAGTTNYADSVKGRFTISRDNAKNTVYLQMNSLKPEDTAVYYCNKDYSTYWLYTWQITVADDYWGQGTQVTVSS
polyreactivity (PSR sort gate): low polyreactivity

QVQLVESGGGLVQAGGSLRLSCAASGYTIISYGMGWYTQAPGKERELVAAISSGDRTNYADSVKGRFTISRDNAKNTVYLQMNSLKPEDTAVYYCNADRASSSVGYSDEFGHDSWGQGTQVTVSS
polyreactivity (PSR sort gate): low polyreactivity

QVQLVESGGGLVQAGGSLRLSCAASGYTINPYAIGWYRQAPGKERELVATIRSSGSTNYADSVKGRFTISRDNAKYTVYLQRNSLKPEDTAVYYFAARTSGRTVRYYYWGQGTQVTVSS
polyreactivity (PSR sort gate): high polyreactivity

QVQLVESGGGLVQAGGSLRLSCAASGYTIRNYAMGWYRQAPGTERELVAAIRGSGGSTYYADSVKGRFTISRDNAKNTVYLQMNSLKPEDTAVDYCNADQLVWQRYGVLYEYDYWGQGTQVTVSS
polyreactivity (PSR sort gate): high polyreactivity

QVQLVESGGGLVQAGGSLRLSCAASGYTLSVNAMGWYRQAPGKERELVATIDFGGGSTYYADSVKGRFTISRDNAKNTVYLKMNSLKPEDTAVYYCNTEWTSLSKSSLGGRYDHWGQGTQVTVSS
polyreactivity (PSR sort gate): low polyreactivity

QVQLVESGGGLVQAGGSLRLSCAASGYTLVGYAMGWYRQAPGKEMELVAVISGSGGSTRYADSVKGRFTISRDNAKYTVYLQMNSLNPEDTAVYYCAARQPRTQAVYEGYYWGQGTQVTVSS
polyreactivity (PSR sort gate): high polyreactivity

QVQLVESGGGLVQAGGSLRLSCAASGYTVYANAMGWYRQAPGKEREFVASITWSGGSTYYADSVKGRFSISRDNAKNPVYLQMNSLKPEDTAVYYCAAESWFKYDYWGQGTQVTVSS
polyreactivity (PSR sort gate): low polyreactivity

QVQLVESGGGLVQAGGSLRLSCAASNSSINAMGWYRQAPGKERELVAAIRWSGSSTYYADSEKGRFPISRDNAKTTVYLQMNSLKPEDTAVYYCAADTTTGDRGFDYWGQGTQVTVSS
polyreactivity (PSR sort gate): high polyreactivity

QVQLVESGGGLVQAGGSLRLSCAASRFIFQPYAMGWYRQAPGKERELVAAITSRGGRTYYADSVKGRFTISRDNAKNTVYLKMNSLKPEDSAVYYCNADIYASEYYYWGQGTQVTVSS
polyreactivity (PSR sort gate): low polyreactivity

QVQLVESGGGLVQAGGSLRLSCAASRFTFLTNAMGWYRKAPGTERELVAAISSGGNTNYADSVKGRFTISRDNAKNTVYLQMNSLKPEDTAVYYCAADNDYLSSQVSYDYWGQGTQVTVSS
polyreactivity (PSR sort gate): low polyreactivity

QVQLVESGGGLVQAGGSLRLSCAASRFTFVRYAMGWYRQAPGKEREFVASISARGGNTFYADSVKGRFTISRDNAKNTVYLQMNSLKPEDTAVYYCAASRRVGEVSYYYWGQGTQVTVSS
polyreactivity (PSR sort gate): high polyreactivity

QVQLVESGGGLVQAGGSLRLSCAASRFYTMGWYRPAPGKERELVAAISWSGGDTYYADSVKGRYTISRDNAKNTVYLQMNSLKPEDPAVFYCNKDYSFEYSLRHRDYWGQGTQVTVSS
polyreactivity (PSR sort gate): low polyreactivity

QVQLVESGGGLVQAGGSLRLSCAASRIFAYYTMGWIRQSPGKERELVAAITYSGGSTFYADSVKGRFTISRDNAKNTVYLQMNRLKPEDSSVYYCNAVVRNYGYDYWGQGTQVTVSS
polyreactivity (PSR sort gate): high polyreactivity

QVQLVESGGGLVQAGGSLRLSCAASRIFRGYAMGWYRQAPGKERELVAAIDRGVSTYYADSVKGRFTISRDNAKNTVYLQMNSRKPEDTAVYYCAVEYWEPYDMDYWGQGTQVTVSS
polyreactivity (PSR sort gate): high polyreactivity

QVQLVESGGGLVQAGGSLRLSCAASRLIVYQNAMGWYRQAPGKEREFVAAISWSGGRTYYADSVKGRFTISRDNAKNTVYLQMNSLKPEDTAVYYCAARFTYYTYEFEYWGQGTQVTVSS
polyreactivity (PSR sort gate): high polyreactivity

QVQLVESGGGLVQAGGSLRLSCAASRLTFQQYAMGWYRQAPGKERELVAAITSDGASTNYADSVKGRFTISRDNAKNTVYLQMNSLKPEDTAVYYCAARRSSRQYRYDYWGQGTQVTVSS
polyreactivity (PSR sort gate): high polyreactivity

QVQLVESGGGLVQAGGSLRLSCAASRLTFVGYAMGWYRQAPGKETALVAALTSSGGGTYYADSVKGRFTISRDNAKNPVYLQMNSLKPQDTALYYCAKVTRGSQYDYWGQGTEVTVSS
polyreactivity (PSR sort gate): low polyreactivity

QVQLVESGGGLVQAGGSLRLSCAASRRIFYAYAMGWYRQAPGKEIELLATITGIGGSTYADSVKGRFTISRDNAKNTVNLQMNSLKPEDTAVYYCNAERGVYWGRYPYKYDYLGQGTQVTVSS
polyreactivity (PSR sort gate): low polyreactivity

QVQLVESGGGLVQAGGSLRLSCAASRRIIYRSAMGWYRQAPGKERELLAAITSGDSTYYADSVKVRFTISRDNSKNTVFLQMNSLKPEDTAVYYCAADYLSRSPAYEHYYWGQGTQVTVSS
polyreactivity (PSR sort gate): high polyreactivity

QVQLVESGGGLVQAGGSLRLSCAASRRTFANYAMGWYRQAPGKERELVAAISRSGGSTYYADSVKGRFTISRDNAKNSVYLQMKSLKPEDTAVYYCAARYVRQYYRAEDYWGQGTHVTVSS
polyreactivity (PSR sort gate): high polyreactivity

QVQLVESGGGLVQAGGSLRLSCAASRRTFSYNTMGWYRQAPGTERELVARITWGGGSTNYADSVKGRFTISRDNAKNTVYLQMNSLKPEDTAVYYCAAGPSVPYGPQKVDYWGQGTQVTVSS
polyreactivity (PSR sort gate): low polyreactivity
